From publication PMC9484695, “The evolutionary conserved proteins CEP90, FOPNL, and OFD1 recruit centriolar distal appendage proteins to initiate their assembly” (PLoS Biology, 2022)

T1: CEP90 (overexpressed) (UniProt Q8WXW3 1-757)
T1 construct: CEP90 (PIBF1), cDNA clone from Dharmacon horizondiscovery; no tag is named; also called overexpressed CEP90; source: U2OS, transfected (lipofectamine 2000), in cells
T1 sequence (looked up): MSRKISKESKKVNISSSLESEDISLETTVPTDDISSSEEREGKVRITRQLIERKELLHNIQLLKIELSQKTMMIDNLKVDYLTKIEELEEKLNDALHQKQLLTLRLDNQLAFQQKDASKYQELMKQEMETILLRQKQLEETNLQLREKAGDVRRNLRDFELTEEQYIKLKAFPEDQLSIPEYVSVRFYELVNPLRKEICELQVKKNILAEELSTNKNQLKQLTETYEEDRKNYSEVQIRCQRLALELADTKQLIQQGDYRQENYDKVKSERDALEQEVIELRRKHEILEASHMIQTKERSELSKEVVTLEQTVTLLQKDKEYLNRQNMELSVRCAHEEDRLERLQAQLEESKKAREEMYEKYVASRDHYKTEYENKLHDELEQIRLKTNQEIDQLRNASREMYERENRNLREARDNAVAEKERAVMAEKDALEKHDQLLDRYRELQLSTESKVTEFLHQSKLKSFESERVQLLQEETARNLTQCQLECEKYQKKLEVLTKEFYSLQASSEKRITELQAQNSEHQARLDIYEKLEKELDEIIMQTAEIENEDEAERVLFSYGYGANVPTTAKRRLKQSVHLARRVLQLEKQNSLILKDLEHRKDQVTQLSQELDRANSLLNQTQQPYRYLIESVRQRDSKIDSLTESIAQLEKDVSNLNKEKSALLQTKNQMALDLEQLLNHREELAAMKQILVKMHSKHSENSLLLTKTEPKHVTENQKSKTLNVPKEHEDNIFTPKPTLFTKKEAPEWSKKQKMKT

B1: OFD1 (endogenous) (natural protein, UniProt O75665 1-1012, looked up)
chain: MMAQSNMFTVADVLSQDELRKKLYQTFKDRGILDTLKTQLRNQLIHELMHPVLSGELQPRSISVEGSSLLIGASNSLVADHLQRCGYEYSLSVFFPESGLAKEKVFTMQDLLQLIKINPTSSLYKSLVSGSDKENQKGFLMHFLKELAEYHQAKESCNMETQTSSTFNRDSLAEKLQLIDDQFADAYPQRIKFESLEIKLNEYKREIEEQLRAEMCQKLKFFKDTEIAKIKMEAKKKYEKELTMFQNDFEKACQAKSEALVLREKSTLERIHKHQEIETKEIYAQRQLLLKDMDLLRGREAELKQRVEAFELNQKLQEEKHKSITEALRRQEQNIKSFEETYDRKLKNELLKYQLELKDDYIIRTNRLIEDERKNKEKAVHLQEELIAINSKKEELNQSVNRVKELELELESVKAQSLAITKQNHMLNEKVKEMSDYSLLKEEKLELLAQNKLLKQQLEESRNENLRLLNRLAQPAPELAVFQKELRKAEKAIVVEHEEFESCRQALHKQLQDEIEHSAQLKAQILGYKASVKSLTTQVADLKLQLKQTQTALENEVYCNPKQSVIDRSVNGLINGNVVPCNGEISGDFLNNPFKQENVLARMVASRITNYPTAWVEGSSPDSDLEFVANTKARVKELQQEAERLEKAFRSYHRRVIKNSAKSPLAAKSPPSLHLLEAFKNITSSSPERHIFGEDRVVSEQPQVGTLEERNDVVEALTGSAASRLRGGTSSRRLSSTPLPKAKRSLESEMYLEGLGRSHIASPSPCPDRMPLPSPTESRHSLSIPPVSSPPEQKVGLYRRQTELQDKSEFSDVDKLAFKDNEEFESSFESAGNMPRQLEMGGLSPAGDMSHVDAAAAAVPLSYQHPSVDQKQIEEQKEEEKIREQQVKERRQREERRQSNLQEVLERERRELEKLYQERKMIEESLKIKIKKELEMENELEMSNQEIKDKSAHSENPLEKYMKIIQQEQDQESADKSSKKMVQEGSLVDTLQSSDKVESLTGFSHEELDDSW
notes: OFD1, endogenous human protein; source: endogenous: HEK293 Flp-In cells (BioID); Hela Kyoto lysate (co-IP); U2OS cells (microtubule recruitment assay)
B2: CEP83 (endogenous) (natural protein, human (endogenous in U2OS), UniProt Q9Y592 1-701, looked up)
chain: MVVSTFTDMDTFPNNFPPGGDSGLTGSQSEFQKMLIDERLRCEHHKANYQTLKAEHTRLQNEHVKLQNELKHLFNEKQTQQEKLQLLLEELRGELVEKTKDLEEMKLQILTPQKLELLRAQIQQELETPMRERFRNLDEEVEKYRAVYNKLRYEHTFLKSEFEHQKEEYARILDEGKIKYESEIARLEEDKEELRNQLLNVDLTKDSKRVEQLAREKVYLCQKLKGLEAEVAELKAEKENSEAQVENAQRIQVRQLAEMQATVRSLEAEKQSANLRAERLEKELQSSSEQNTFLINKLHKAEREINTLSSKVKELKHSNKLEITDIKLETARAKSELERERNKIQSELDGLQSDNEILKAAVEHHKVLLVEKDRELIRKVQAAKEEGYQKLVVLQDEKLELENRLADLEKMKVEHDVWRQSEKDQYEEKLRASQMAEEITRKELQSVRLKLQQQIVTIENAEKEKNENSDLKQQISSLQIQVTSLAQSENDLLNSNQMLKEMVERLKQECRNFRSQAEKAQLEAEKTLEEKQIQWLEEKHKLHERITDREEKYNQAKEKLQRAAIAQKKRKSLHENKLKRLQEKVEVLEAKKEELETENQVLNRQNVPFEDYTRLQKRLKDIQRRHNEFRSLILVPNMPPTASINPVSFQSSAMVPSMELPFPPHMQEEQHQRELSLLRKRLEELETTQRKQLEELGSSGE
notes: CEP83, endogenous human protein; also called endogenous CEP83; source: endogenous, U2OS cells

Target: T1, CEP90 (overexpressed)
Test: microtubule recruitment (displacement) assay; U2OS cotransfected with MNR-GFP and CEP90, OFD1 mCherry or myc-FOPNL, 24 h; endogenous OFD1, CEP90, CEP83, CEP89, CEP164 stained; percent of cells with the endogenous protein on microtubules, 100 < N < 150 cells per condition, 3 experiments
Details: partners not purified

Row | Binder | percent of cells with the endogenous protein on microtubules
1 | B1 | 63.3%
2 | B2 | 66.7%
